Results reported in patent US11351270B2, “Junctophilin-2 fragments and uses therefor” (University of Iowa Research Foundation, priority 2016, dated 2022).

Tested on: JP2-KD cardiomyocytes
Experiment: Confocal Ca2+ imaging in JP2-KD cardiomyocytes after adenoviral expression
Format: cell-based, mouse
Settings: 1-Hz field stimulation
Source text: Specifically, conditional shJP2 mice (provided by Dr. Wehrens) (van Oort et al., 2011) were crossed with mice carrying the cardiac-specific α-myosin heavy chain promoter upstream of Cre (% MHC-Cre, also FVB-Tg(Myh6-cre)2182Mds/J, The Jackson Laboratory). The shJP2 mice were maintained on a C57BL/6 background for more than 10 generations. The αMHC-Cre mice were maintained on an FVB background. PCR was used to genotype the offspring. The near complete depletion of JP2 protein in JP2-KD (αMHC-Cre X shJP2) hearts has been reported recently (Chen et al., 2013). JP2-KD mice were sacrificed at 2 months of age for isolation and culture of ventricular cardiomyocytes as described below.
Genecarrior-1 (Epoch Lab) was used to transfect plasmids into HEK293T cells. Isolation and culture of cardiomyocytes were performed as described previously (Guo et al., 2012). […] Ca^2+ Imaging experiments were performed 40 hours after adenoviral infection.
Cells were loaded with Rhod-2AM at 37° C. for 20 minutes, followed by washing with Tyrode's solution at room temperature for 15 minutes before Ca^2+ imaging. Confocal images were acquired using a ×63, 1.3 numerical aperture oil immersion objective mounted on a Zeiss LSM 510 confocal microscope. Confocal line scanning was used to record Ca^2+ signals. Steady-state Ca^2+ transients were recorded in Tyrode's solution containing 1.8 mM Ca^2+ under field stimulation of 1 Hz. At least five steady-state transients for each cell were analyzed and averaged to represent Ca^2+ signals of the cell. Ca^2+ imaging data were analyzed by using a home-complied software, CaTeasy, which is coded in MATLAB 2013a (Mathworks). Briefly, the program normalizes Ca^2+ transient images on a column-by-column basis (512 columns/image). The characteristic parameters of normalized transients were detected automatically. The firing time of every scanning pixel was detected column by column on the basis of the maximum local variability of pixel intensity. The profile of the point-to-point firing time was indicated by a red line overlapping on the Ca^2+ image. Index of desynchronization, defined by the mean absolute deviation of firing time of each scanning pixel (with every 8 pixels binned), was used to evaluate the dyssynchrony of Ca^2+ transients. This automated software for calcium transient analysis is available upon request.

B1: JP2NT: shorter form of Junctophilin-2 including the first 565 amino acids of N-terminus of JP2 (protein, UniProt Q9BR39 1-565, looked up, fragment)
chain: MSGGRFDFDDGGAYCGGWEGGKAHGHGLCTGPKGQGEYSGSWNFGFEVAGVYTWPSGNTFEGYWSQGKRHGLGIETKGRWLYKGEWTHGFKGRYGIRQSSSSGAKYEGTWNNGLQDGYGTETYADGGTYQGQFTNGMRHGYGVRQSVPYGMAVVVRSPLRTSLSSLRSEHSNGTVAPDSPASPASDGPALPSPAIPRGGFALSLLANAEAAARAPKGGGLFQRGALLGKLRRAESRTSVGSQRSRVSFLKSDLSSGASDAASTASLGEAAEGADEAAPFEADIDATTTETYMGEWKNDKRSGFGVSERSSGLRYEGEWLDNLRHGYGCTTLPDGHREEGKYRHNVLVKDTKRRMLQLKSNKVRQKVEHSVEGAQRAAAIARQKAEIAASRTSHAKAKAEAAEQAALAANQESNIARTLARELAPDFYQPGPEYQKRRLLQEILENSESLLEPPDRGAGAAGLPQPPRESPQLHERETPRPEGGSPSPAGTPPQPKRPRPGVSKDGLLSPGAWNGEPSGEGSRSVTPSEGAGRRSPARPATERMAIEALQAPPAPSREPEVALYQG
modifications: GST or adenoviral forms
notes: shorter form of Junctophilin-2 including the first 565 amino acids of N-terminus of JP2
- restoration of Ca2+ transients: failed to restore
